{"source": "the DeepSol protein solubility set", "data": [{"experiment": "soluble on expression in E. coli; label from the status in PepcDB or PDB records", "values": [{"sequence": "GFTVALIQGDGIGPEIVSKSKRILAKINELYSLPIEYIEVEAGDRALARYGEALPKDSLKIIDKADIILKGPVGESAADVVVKLRQIYDMYANIRPAKSIPGIDTKYGNVDILIVRENTEDLYKGFEHIVSDGVAVGMKIITRFASERIAKVGLNFALRRRKKVTCVHKANVMRITDGLFAEACRSVLKGKVEYSEMYVDAAAANLVRNPQMFDVIVTENVYGDILSDEASQIAGSLGIAPSANIGDKKALFEPVHGAAFDIAGKNIGNPTAFLLSVSMMYERMYELSNDDRYIKASRALENAIYLVYKERKALTPDVGGNATTDDLINEIYNKLG", "soluble on expression in E. coli": "soluble"}, {"sequence": "AHHHHHHGSKVYYPGREWPEEYKRVLEKMKEIIDPVTGDNILDSGVVAGLEVKDRTLKVWLRFESQAEYNILGGAAMAYSKIVGDIMEKFALVMFDNVYVYDLRNNIVGVFEKKK", "soluble on expression in E. coli": "not soluble"}, {"sequence": "MSLNSEAFTGNAAQRFLFSSSDGTKIVSIADRGHLRWCHSTSTTYKSLDFDLQFEGKVEGAVSSTTADYVCIYNRDELHVLEVPWMYSGEENGLKHLCHIYSHKFDENHSIKQVLFHPKSYLDSTILVLTNDDSIFMINTDDNRSDKNMINLNSKNSALGLYDRINDIQKIIFSQDGLSLLILSAEEGCDIFTIYPCLPRRWDISLHEVDTLFAKSLLLYNNMNVNTTPQEKRNIVKQLNFMEKIRGQKTAFRNDKKPLILEDAYLNAQPQGPFSMTPYPNELYDFMATDINIIQITQNISLLAIAFSNGTVLLFLSDLEPIMSWDISRFPGSNSLALLEQIKLEITDNAKFLSIPGTYGKFVVTDNVKSNFFVNTCDWSTILAQIIDDSDIKLLANLKVKSNIENLQQLATTFKSIIYWKNENISCNYIISDKKIEELDEGHHHHHH", "soluble on expression in E. coli": "soluble"}, {"sequence": "MATRRRIGVAAIQKKQETANKFAAKGDQMAGEQLVQFSQQLEQLSAGLEMFAQRHRDEIKKNSQFRRHFQEMCASVGVDPLASSKGFWAKALGFGDFYYELGIQIVEICLSTTHINGGIMTVEEIRNRLMRTRSRTRKDTISTDDILRAVDKLKVLGNGFELVPLGGGRFLVQSVPGELSMDHSRVLQLAEDAAYVTKELIIDKLRWDEARASSALEHLVKEGLAWTDEQASDTTQYWFPSLFLQQYCHSSSSTSVSESLHSMSFNNYQ", "soluble on expression in E. coli": "not soluble"}, {"sequence": "MKKKIESYQGAAGGWGAVKSVANAVRKQMDIRQDVIAMFDMNKPEGFDCPGCAWPDPKHSASFDICENGAKAIAWEVTDKQVNASFFAENTVQSLLTWGDHELEAAGRLTQPLKYDAVSDCYKPLSWQQAFDEIGARLQSYSDPNQVEFYTSGRTSNEAAFLYQLFAREYGSNNFPDCSNMCHEPTSVGLAASIGVGKGTVLLEDFEKCDLVICIGHNPGTNHPRMLTSLRALVKRGAKMIAINPLQERGLERFTAPQNPFEMLTNSETQLASAYYNVRIGGDMALLKGMMRLLIERDDAASAAGRPSLLDDEFIQTHTVGFDELRRDVLNSEWKDIERISGLSQTQIAELADAYAAAERTIICYGMGITQHEHGTQNVQQLVNLLLMKGNIGKPGAGICPLRGHSNVQGDRTVGITEKPSAEFLARLGERYGFTPPHAPGHAAIASMQAICTGQARALICMGGNFALAMPDREASAVPLTQLDLAVHVATKLNRSHLLTARHSYILPVLGRSEIDMQKNGAQAVTVEDSMSMIHASRGVLKPAGVMLKSECAVVAGIAQAALPQSVVAWEYLVEDYDRIRNDIEAVLPEFADYNQRIRHPGGFHLINAAAERRWMTPSGKANFITSKGLLEDPSSAFNSKLVMATVRSHDQYNTTIYGMDDRYRGVFGQRDVVFMSAKQAKICRVKNGERVNLIALTPDGKRSSRRMDRLKVVIYPMADRSLVTYFPESNHMLTLDNHDPLSGIPGYKSIPVELEPSN", "soluble on expression in E. coli": "not soluble"}, {"sequence": "MQALNSISSLQTSASLFPVSLNSDVSANTSTSSKELKAVIDQLVQALTQSGQLDETSPLGKMLAKAMAADGKSANSIDDITASLDKLIHEKLGDNFGASAGIGAGGGGGGIGGAGSGSGVGGGLSSDAGAGQSDLMSQVLNGLGKAVLDDLLTPSGEGGTTFSSDDMPTLEKVAQFMDDNKAQFPTRDGGSWMNELKEDNGLDAQETAQFRSALDVIGQQLGQQQGDASGVTSGGGLGSPVSDSSLGNPAIDANTGPAANGNASVDVGQLIGQLIDRGLQSVSSGGGLGTPVDNSTQPTGGTPAANPTGNVSNQDLGQLLSGLLQRGLEATLQDAGNTGADLQSSAAQVAAQLINALLQGTNNQTNQAVALEHHHHHH", "soluble on expression in E. coli": "soluble"}, {"sequence": "MKVASGSTATAAAGPSCALKAGKTASGAGEVVRCLSEQSVAISRCAGGAGARLPALLDEQQVNVLLYDMNGCYSRLKELVPTLPQNRKVSKVEILQHVIDYIRDLQLELNSESEVGTPGGRGLPVRAPLSTLNGEISALTAEAACVPADDRILCRLEHHHHHH", "soluble on expression in E. coli": "soluble"}, {"sequence": "MSLLFSNTYRIESNAPLADKLRPKNLDDFFGQESILGHDSLLRNAILNDKVGNMIFSGPPGVGKTTLIEIISSNTRSSLIKLNAVLSSIKELRTEIANAKERLRSSNRKTILFIDEVHRFTSVQQDALLPSIENGTITFIGATTENPFFAVNKALISRARIFSLLPLNKNDLKKIIDKVIKYYSCLKDSKVVEIKEEAMNHLIKFSGGDARNLINALELGISITKENKENLVVIDLAIAEDSIQKKNIVYDKNGQNHFDVISAFIKSIRGSDPDATLYWLANMVEAGEDPNFIFRRLLISACEDIGLADPNAIVVVQSCCDAFDRVGFPEGLFFLSQASLYLAISPKSNSTKSIFKAMEAIKATNVSLVPNHLKNNASNYLNPHNYQGKWLQQEYLPTDLQGIKFWKPKDSGWEKNKYEDLPKKQKSEGHHHHHH", "soluble on expression in E. coli": "not soluble"}, {"sequence": "MAHHHHHHVDDDDKMSLLDAHIPQLIASHTAFAAKAGLMRHTIGQAEQQAMSAQAFHQGESAAAFQGAHARFVAAAAKVNTLLDIAQANLGEAAGTYVAADAAAASSYTGF", "soluble on expression in E. coli": "soluble"}, {"sequence": "MGSDKIHHHHHHMGAARRLPSALFLLGCRTRTRGEHAHMGKIRTGIGGWTFEPWRGTFYPDDLKQKDELKYAASKLTSIEINGTYYSTFKPNSWMKWRDETPDDFVFSVKASRFCTNRRVLSENNDSLEKFLSQGLEELGPKLGPINWQFMATKKFDPADFEGFLKLLPSEQKGVRLRHAMEVRSPTFACQQFYDLCAQYGVAIVYAVDDEAPEWPRIDQPTADFTYARLMCSREDEPTGMTSEELDGVVAQTHKWAERGDVFAYFIAGAKVRNPAAAMALIGKLGG", "soluble on expression in E. coli": "not soluble"}, {"sequence": "NETEVAKTSQDTTTASSSSEQNQSSNKTQTSAEVQTNAAAYWDGDYYVKDDGSKAQSEWIFDNYYKAWFYINSDGRYSQNEWHGNYYLKSGGYMAQNEWIYDSNYKSWFYLKSDGAYAHQEWQLIGNKWYYFKKWGYMAKSQWQGSYFLNGQGAMIQNEWLYDPAYSAYFYLKSDGTYANQEWQKVGGKWYYFKKWGYMARNEWQGNYYLTGSGAMATDEVIMDGARYIFAASGELKEKKDLNVGWVHRDGKRYFFNNREEQVGTEHAKKIIDISEHNGRINDWKKVIDENEVDGVIVRLGYSGKEDKELAHNIKELNRLGIPYGVYLYTYAENETDAENDAKQTIELIKKYNMNLSYPIYYDVQNWEYVNKSKRAPSDTDTWVKIINKYMDTMKQAGYQNVYVYSYRSLLQTRLKHPDILKHVNWVAAYTNALEWENPYYSGEKGWQYTSSEYMKGIQGRVDVSVWY", "soluble on expression in E. coli": "soluble"}, {"sequence": "GPGSMSEYADCTEVAKKALEFRQQFYQLLDNPERRGDIVALYAPNTPLLCEWNGHALPDTASIAAYLGGLPRTNHKVDCVDAQPLPGNERADSFLMTVHGVVTYDDEHKREFFQRFVIRKVEERYYIMNDYYRWLSEKE", "soluble on expression in E. coli": "not soluble"}, {"sequence": "KKNLLYLGLTGYLLFALCTRLQAQTDSLQAHRYVTRATMYGVGFTNVFDTYLSPQEYKGIDFRISRETIRMTKLFDGNVSVQNFFQADVGYTHNRADNNNTFSGLVNWNYGLHYQFRLTENFKLLAGGLFDVNGGFVYNLRNSNNPASARAYVNLDASGMAIWHLKIKRYPMVLRYQVNVPMIGLMFSPHYGQSYYEIFSLGNSSGVIQFTSLHNQPSLRQMLSVDLPIGYTKMRFSYLADLQQSNVNGIKTHTYSHVFMVGFVKDLYRVSNKKGANLPPSVRAY", "soluble on expression in E. coli": "not soluble"}, {"sequence": "MSEQTLEYFLNKGTIRRKDAADIEWYHAANSKSKLMEALRGSAQMIEADVLLRGADPEEPIMAHPPAKDSDITLQDWLKEVVKTDKGIKLDFKSLAAVSQSMSLLEEIRDQLKGPVWINADILPGPGGTATPVDPHVFLQEVAQRSENDVLSLGWTTGWTANVDNPGYSWEMVHQMEELCRPLKQPVTFPVRASLLPMSFPQFQWLLEQSDRSEILH", "soluble on expression in E. coli": "not soluble"}]}]}
